Measurements reported in IntAct's records for PubMed 31515488.

B1: Protein FAM9B (Homo sapiens), Q8IZU0 (parent)
chain: MAAWGKKHAGKDPVRDECEERNRFTETREEDVTDEHGEREPFAETDEHTGANTKKPEDTAEDLTAKRKRMKMDKTCSKTKNKSKHALRKKQLKRQKRDYIHSLKLLNVLEEYITDEQKEEEEEEGEEEELIRIFQEQQKKWQQYRSVRRERLKEMKLLRDQFVKALEDFEDLCDRVFSDEDSELDN
partner: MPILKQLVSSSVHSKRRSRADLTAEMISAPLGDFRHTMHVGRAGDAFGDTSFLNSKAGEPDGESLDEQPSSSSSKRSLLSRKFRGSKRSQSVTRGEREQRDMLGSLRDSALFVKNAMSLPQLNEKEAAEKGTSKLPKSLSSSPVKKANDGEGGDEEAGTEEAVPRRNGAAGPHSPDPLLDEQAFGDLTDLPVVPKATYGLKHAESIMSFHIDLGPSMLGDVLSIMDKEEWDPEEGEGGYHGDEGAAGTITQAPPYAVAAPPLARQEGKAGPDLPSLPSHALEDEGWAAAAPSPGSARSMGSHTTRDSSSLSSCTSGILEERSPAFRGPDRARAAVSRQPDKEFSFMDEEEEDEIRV
B2: Poliovirus receptor (Homo sapiens), P15151 (parent)
chain: MARAMAAAWPLLLVALLVLSWPPPGTGDVVVQAPTQVPGFLGDSVTLPCYLQVPNMEVTHVSQLTWARHGESGSMAVFHQTQGPSYSESKRLEFVAARLGAELRNASLRMFGLRVEDEGNYTCLFVTFPQGSRSVDIWLRVLAKPQNTAEVQKVQLTGEPVPMARCVSTGGRPPAQITWHSDLGGMPNTSQVPGFLSGTVTVTSLWILVPSSQVDGKNVTCKVEHESFEKPQLLTVNLTVYYPPEVSISGYDNNWYLGQNEATLTCDARSNPEPTGYNWSTTMGPLPPFAVAQGAQLLIRPVDKPINTTLICNVTNALGARQAELTVQVKEGPPSEHSGISRNAIIFLVLGILVFLILLGIGIYFYWSKCSREVLWHCHLCPSSTEHASASANGHVSYSAVSRENSSSQDPQTEGTR
partner: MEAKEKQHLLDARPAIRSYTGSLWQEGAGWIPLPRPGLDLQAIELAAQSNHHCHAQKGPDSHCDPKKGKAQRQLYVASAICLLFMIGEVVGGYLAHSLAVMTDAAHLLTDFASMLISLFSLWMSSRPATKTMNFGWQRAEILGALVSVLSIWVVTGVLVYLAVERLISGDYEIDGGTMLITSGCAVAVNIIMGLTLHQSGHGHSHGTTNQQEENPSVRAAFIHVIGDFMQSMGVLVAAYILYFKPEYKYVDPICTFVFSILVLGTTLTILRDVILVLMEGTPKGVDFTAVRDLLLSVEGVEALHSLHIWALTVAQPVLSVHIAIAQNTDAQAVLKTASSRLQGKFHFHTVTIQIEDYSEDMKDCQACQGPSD
B3: Interferon-induced protein with tetratricopeptide repeats 2 (Homo sapiens), P09913 (parent)
chain: MSENNKNSLESSLRQLKCHFTWNLMEGENSLDDFEDKVFYRTEFQNREFKATMCNLLAYLKHLKGQNEAALECLRKAEELIQQEHADQAEIRSLVTWGNYAWVYYHMGRLSDVQIYVDKVKHVCEKFSSPYRIESPELDCEEGWTRLKCGGNQNERAKVCFEKALEKKPKNPEFTSGLAIASYRLDNWPPSQNAIDPLRQAIRLNPDNQYLKVLLALKLHKMREEGEEEGEGEKLVEEALEKAPGVTDVLRSAAKFYRRKDEPDKAIELLKKALEYIPNNAYLHCQIGCCYRAKVFQVMNLRENGMYGKRKLLELIGHAVAHLKKADEANDNLFRVCSILASLHALADQYEDAEYYFQKEFSKELTPVAKQLLHLRYGNFQLYQMKCEDKAIHHFIEGVKINQKSREKEKMKDKLQKIAKMRLSKNGADSEALHVLAFLQELNEKMQQADEDSERGLESGSLIPSASSWNGE
partner: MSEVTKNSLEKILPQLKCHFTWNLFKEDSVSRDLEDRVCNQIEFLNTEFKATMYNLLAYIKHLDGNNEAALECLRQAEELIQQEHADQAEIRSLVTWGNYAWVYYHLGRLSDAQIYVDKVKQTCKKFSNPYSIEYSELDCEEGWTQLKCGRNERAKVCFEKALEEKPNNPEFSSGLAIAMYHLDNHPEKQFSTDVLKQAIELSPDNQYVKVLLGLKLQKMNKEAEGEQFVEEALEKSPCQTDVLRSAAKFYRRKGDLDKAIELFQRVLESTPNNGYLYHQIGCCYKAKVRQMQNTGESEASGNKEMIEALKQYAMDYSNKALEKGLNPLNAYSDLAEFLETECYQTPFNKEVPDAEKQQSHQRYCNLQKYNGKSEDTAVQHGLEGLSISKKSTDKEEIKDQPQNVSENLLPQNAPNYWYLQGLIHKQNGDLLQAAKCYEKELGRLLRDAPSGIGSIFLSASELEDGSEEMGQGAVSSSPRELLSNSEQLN
B4: Protein BTG1 (Homo sapiens), P62324 (parent)
chain: MHPFYTRAATMIGEIAAAVSFISKFLRTKGLTSERQLQTFSQSLQELLAEHYKHHWFPEKPCKGSGYRCIRINHKMDPLIGQAAQRIGLSSQELFRLLPSELTLWVDPYEVSYRIGEDGSICVLYEASPAGGSTQNSTNVQMVDSRISCKEELLLGRTSPSKNYNMMTVSG
B5: Tripartite motif-containing protein 59 (Homo sapiens), Q8IWR1 (parent)
chain: MHNFEEELTCPICYSIFEDPRVLPCSHTFCRNCLENILQASGNFYIWRPLRIPLKCPNCRSITEIAPTGIESLPVNFALRAIIEKYQQEDHPDIVTCPEHYRQPLNVYCLLDKKLVCGHCLTIGQHHGHPIDDLQSAYLKEKDTPQKLLEQLTDTHWTDLTHLIEKLKEQKSHSEKMIQGDKEAVLQYFKELNDTLEQKKKSFLTALCDVGNLINQEYTPQIERMKEIREQQLELMALTISLQEESPLKFLEKVDDVRQHVQILKQRPLPEVQPVEIYPRVSKILKEEWSRTEIGQIKNVLIPKMKISPKRMSCSWPGKDEKEVEFLKILNIVVVTLISVILMSILFFNQHIITFLSEITLIWFSEASLSVYQSLSNSLHKVKNILCHIFYLLKEFVWKIVSH
partner: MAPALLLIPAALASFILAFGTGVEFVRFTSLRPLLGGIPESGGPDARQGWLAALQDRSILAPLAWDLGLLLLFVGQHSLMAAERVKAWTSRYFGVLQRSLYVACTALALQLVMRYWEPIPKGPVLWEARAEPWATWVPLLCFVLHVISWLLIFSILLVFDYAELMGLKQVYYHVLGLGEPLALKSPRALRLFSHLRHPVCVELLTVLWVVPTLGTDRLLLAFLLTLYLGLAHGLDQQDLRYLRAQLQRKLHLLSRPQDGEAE
B6: DnaJ homolog subfamily C member 30, mitochondrial (Homo sapiens), Q96LL9 (parent)
chain: MAAMRWRWWQRLLPWRLLQARGFPQNSAPSLGLGARTYSQGDCSYSRTALYDLLGVPSTATQAQIKAAYYRQCFLYHPDRNSGSAEAAERFTRISQAYVVLGSATLRRKYDRGLLSDEDLRGPGVRPSRTPAPDPGSPRTPPPTSRTHDGSRASPGANRTMFNFDAFYQAHYGEQLERERRLRARREALRKRQEYRSMKGLRWEDTRDTAAIFLIFSIFIIIGFYI
partner: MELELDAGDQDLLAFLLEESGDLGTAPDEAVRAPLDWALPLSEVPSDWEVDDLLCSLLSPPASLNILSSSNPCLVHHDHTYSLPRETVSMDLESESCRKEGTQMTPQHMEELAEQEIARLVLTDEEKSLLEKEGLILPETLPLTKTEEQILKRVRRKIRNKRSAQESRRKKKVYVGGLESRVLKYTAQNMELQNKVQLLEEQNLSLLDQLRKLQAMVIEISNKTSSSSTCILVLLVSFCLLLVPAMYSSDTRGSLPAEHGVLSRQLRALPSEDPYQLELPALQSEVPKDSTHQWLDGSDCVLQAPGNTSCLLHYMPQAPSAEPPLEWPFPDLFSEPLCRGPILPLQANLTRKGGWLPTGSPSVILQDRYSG
B7: Keratin, type II cytoskeletal 6A (Homo sapiens), P02538 (parent)
chain: MASTSTTIRSHSSSRRGFSANSARLPGVSRSGFSSVSVSRSRGSGGLGGACGGAGFGSRSLYGLGGSKRISIGGGSCAISGGYGSRAGGSYGFGGAGSGFGFGGGAGIGFGLGGGAGLAGGFGGPGFPVCPPGGIQEVTVNQSLLTPLNLQIDPTIQRVRAEEREQIKTLNNKFASFIDKVRFLEQQNKVLETKWTLLQEQGTKTVRQNLEPLFEQYINNLRRQLDSIVGERGRLDSELRGMQDLVEDFKNKYEDEINKRTAAENEFVTLKKDVDAAYMNKVELQAKADTLTDEINFLRALYDAELSQMQTHISDTSVVLSMDNNRNLDLDSIIAEVKAQYEEIAQRSRAEAESWYQTKYEELQVTAGRHGDDLRNTKQEIAEINRMIQRLRSEIDHVKKQCANLQAAIADAEQRGEMALKDAKNKLEGLEDALQKAKQDLARLLKEYQELMNVKLALDVEIATYRKLLEGEECRLNGEGVGQVNISVVQSTVSSGYGGASGVGSGLGLGGGSSYSYGSGLGVGGGFSSSSGRAIGGGLSSVGGGSSTIKYTTTSSSSRKSYKH

Variants of: B1
Details: with borg4_human CDC42EP4, Q9H3Q1

| Variant | effect of a mutation on the interaction |
| --- | --- |
| R23H | with no effect |

Variants of: B2
Details: with znt2_human SLC30A2, Q9BRI3

| Variant | effect of a mutation on the interaction |
| --- | --- |
| A67T | with no effect |

Variants of: B3
Details: with ifit3_human IFIT3, O14879

| Variant | effect of a mutation on the interaction |
| --- | --- |
| E79A | disrupting interaction strength |

Variants of: B4
Details: with cnot8_human CNOT8, Q9UFF9
Chain of cnot8_human CNOT8, Q9UFF9 (Q9UFF9 whole entry): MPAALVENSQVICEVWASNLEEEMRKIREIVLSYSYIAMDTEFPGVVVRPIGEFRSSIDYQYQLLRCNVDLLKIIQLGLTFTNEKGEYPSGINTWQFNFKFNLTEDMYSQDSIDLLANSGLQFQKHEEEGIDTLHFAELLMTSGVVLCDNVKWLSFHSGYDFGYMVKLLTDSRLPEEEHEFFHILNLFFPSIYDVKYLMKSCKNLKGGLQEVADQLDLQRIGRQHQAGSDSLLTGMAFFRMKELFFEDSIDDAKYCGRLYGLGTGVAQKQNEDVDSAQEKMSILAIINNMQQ

| Variant | effect of a mutation on the interaction |
| --- | --- |
| N139S | with no effect |

Variants of: B5
Details: with nrm_human NRM

| Variant | effect of a mutation on the interaction |
| --- | --- |
| R258C | with no effect |

Variants of: B6
Details: with creb3_human CREB3, O43889

| Variant | effect of a mutation on the interaction |
| --- | --- |
| T48K | with no effect |

Variants of: B7
Details: with KRT17, Q04695
Chain of KRT17, Q04695 (Q04695 whole entry): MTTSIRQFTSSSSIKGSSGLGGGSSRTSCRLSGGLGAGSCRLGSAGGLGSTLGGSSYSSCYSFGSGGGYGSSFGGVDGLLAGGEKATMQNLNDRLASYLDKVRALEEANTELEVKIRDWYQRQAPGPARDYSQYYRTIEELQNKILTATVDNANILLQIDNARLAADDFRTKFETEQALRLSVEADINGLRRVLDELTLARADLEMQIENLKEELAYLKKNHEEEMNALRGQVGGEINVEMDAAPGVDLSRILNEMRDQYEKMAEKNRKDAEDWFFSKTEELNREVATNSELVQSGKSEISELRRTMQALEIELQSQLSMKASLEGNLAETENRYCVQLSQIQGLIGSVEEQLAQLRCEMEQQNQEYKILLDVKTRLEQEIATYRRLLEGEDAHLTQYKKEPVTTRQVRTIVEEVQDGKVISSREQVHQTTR

| Variant | effect of a mutation on the interaction |
| --- | --- |
| V523F | with no effect |
| T552S | with no effect |
| A335T | with no effect |
| R415H | with no effect |
| L210M | with no effect |
| R559G | with no effect |

Variants of: B7
Details: with tfp11_human TFIP11, Q9UBB9
Chain of tfp11_human TFIP11, Q9UBB9 (Q9UBB9 whole entry): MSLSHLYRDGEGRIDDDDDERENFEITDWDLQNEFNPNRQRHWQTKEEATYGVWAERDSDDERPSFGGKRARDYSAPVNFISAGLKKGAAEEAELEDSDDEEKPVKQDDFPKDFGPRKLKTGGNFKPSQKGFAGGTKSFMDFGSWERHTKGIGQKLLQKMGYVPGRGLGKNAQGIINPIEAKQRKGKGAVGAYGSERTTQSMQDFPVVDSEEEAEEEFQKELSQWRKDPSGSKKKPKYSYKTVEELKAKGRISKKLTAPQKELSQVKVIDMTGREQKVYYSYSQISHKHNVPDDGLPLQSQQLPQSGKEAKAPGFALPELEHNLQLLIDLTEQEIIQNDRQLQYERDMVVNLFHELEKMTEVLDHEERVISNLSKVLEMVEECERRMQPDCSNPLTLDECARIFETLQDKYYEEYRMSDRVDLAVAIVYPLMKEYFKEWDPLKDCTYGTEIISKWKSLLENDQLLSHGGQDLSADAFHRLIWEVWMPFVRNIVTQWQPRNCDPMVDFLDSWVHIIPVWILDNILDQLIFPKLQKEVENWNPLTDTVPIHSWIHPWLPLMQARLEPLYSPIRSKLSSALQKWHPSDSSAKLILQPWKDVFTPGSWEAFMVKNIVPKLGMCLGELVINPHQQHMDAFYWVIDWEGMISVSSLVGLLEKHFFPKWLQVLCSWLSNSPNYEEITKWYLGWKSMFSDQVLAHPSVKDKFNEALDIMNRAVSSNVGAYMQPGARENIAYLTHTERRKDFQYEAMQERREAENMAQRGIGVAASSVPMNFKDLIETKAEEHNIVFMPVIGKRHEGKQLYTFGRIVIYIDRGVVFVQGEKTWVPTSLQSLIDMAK

| Variant | effect of a mutation on the interaction |
| --- | --- |
| V523F | with no effect |
| T552S | with no effect |
| A335T | with no effect |
| R415H | with no effect |
| L210M | with no effect |
| R559G | with no effect |

Variants of: B7
Details: with KRT15, P19012
Chain of KRT15, P19012 (P19012 whole entry): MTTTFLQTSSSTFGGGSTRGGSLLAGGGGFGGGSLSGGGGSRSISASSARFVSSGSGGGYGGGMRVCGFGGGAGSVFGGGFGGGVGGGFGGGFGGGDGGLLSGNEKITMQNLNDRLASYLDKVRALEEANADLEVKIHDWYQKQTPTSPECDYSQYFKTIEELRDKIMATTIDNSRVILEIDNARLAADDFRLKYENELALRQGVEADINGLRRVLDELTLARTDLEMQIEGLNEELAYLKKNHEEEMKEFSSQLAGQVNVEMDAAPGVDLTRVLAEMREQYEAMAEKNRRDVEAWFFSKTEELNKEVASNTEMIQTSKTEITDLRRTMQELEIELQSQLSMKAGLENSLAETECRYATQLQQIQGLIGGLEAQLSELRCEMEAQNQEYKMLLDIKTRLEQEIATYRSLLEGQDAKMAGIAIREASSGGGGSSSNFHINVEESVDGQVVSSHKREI

| Variant | effect of a mutation on the interaction |
| --- | --- |
| V523F | with no effect |
| T552S | with no effect |
| A335T | with no effect |
| R415H | with no effect |
| L210M | with no effect |
| R559G | with no effect |
